T1: CXCL16 (UniProt Q9H2A7 Q9H2A7:30-118)
T1 sequence: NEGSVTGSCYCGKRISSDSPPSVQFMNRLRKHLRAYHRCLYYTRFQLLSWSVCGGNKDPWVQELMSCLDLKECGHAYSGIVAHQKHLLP

B1: 5',3' 10T FKN-S2 Aptamer (ssDNA)
DNA: TTTTTTTTTTGGGGTGGGTGGGGGGCACGTGTGGGGGCGGCCAGGGTGCTTTTTTTTTTT

Biological target: T2, fractalkine (CX3CL1) (Homo sapiens, UniProt P78423 P78423:25-339)
Experiment: competition; vs radiolabeled FKN-S2, 0.1 nM FKN, PBS
Settings: tags: C-terminal polyhistidine; chemokine domain + mucin-like stalk; R&D Systems 365-FR-025
Description: (§1) IC₅₀ Binding Assay. FKN-S2 aptamer was labeled on the 5′ end with a radioactive phosphorous (³²P) using a T4 kinase. Unlabeled aptamer amphiphile was serially diluted in binding buffer composed of PBS with BSA, Poly(dA:dT) and radio-labeled FKN-S2 (generally less than 0.05 nM; ≈20,000 count per minute per well) and unlabeled FKN-S2 (1 nM). This ensured each aptamer dilution contained an identical concentration of FKN-S2. Fractalkine (0.1 nM) or BSA was added to each dilution and the aptamer was allowed to bind for 1 hour at room temperature. Each solution was then filtered though a nitrocellulose membrane where the fractalkine:aptamer complex was captured and non-bound aptamer was removed by washing the membrane three times with PBS. The membrane was then exposed to a phosphor film overnight and imaged. The binding was quantified using imageJ and the data fit to a binding equation to determine the IC₅₀.
Effect of the Spacer on Binding Affinity. […] Radiolabeled FKN-S2 aptamer and unlabeled aptamer-amphiphile were incubated with fractalkine for 1 hour and the aptamer:fractalkine complex collected by filtration through a nitrocellulose membrane. The concentration at which 50% of the aptamer is displaced by the unlabeled competitor is the IC₅₀ value.

T2 sequence (P78423 25-339, one chain of several): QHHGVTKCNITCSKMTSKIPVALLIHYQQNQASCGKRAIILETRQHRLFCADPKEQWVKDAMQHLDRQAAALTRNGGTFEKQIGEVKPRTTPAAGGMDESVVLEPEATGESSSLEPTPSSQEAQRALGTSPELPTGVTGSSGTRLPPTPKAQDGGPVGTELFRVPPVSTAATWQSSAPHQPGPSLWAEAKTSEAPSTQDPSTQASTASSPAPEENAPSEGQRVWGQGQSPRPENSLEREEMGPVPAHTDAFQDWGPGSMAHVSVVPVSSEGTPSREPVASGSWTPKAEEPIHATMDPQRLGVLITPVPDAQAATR

Q: Which IC50 does the source give for GGGGTGGGTGGGGGGCACGTGTGGGGGCGGCCAGGGTGCT (ssDNA, 5' C6 amino-linked C16 dialkyl tail) [5' No Spacer FKN-S2 Amphiphile] here?
A: The IC50 was 81.6 nM.

Q: How did the IC50 turn out when GGGGTGGGTGGGGGGCACGTGTGGGGGCGGCCAGGGTGCT (ssDNA, 3' C6 amino-linked C16 dialkyl tail) [3' No Spacer FKN-S2 Amphiphile] was run?
A: Its IC50 is 65.7 nM.

Q: How did the IC50 turn out when GGGGTGGGTGGGGGGCACGTGTGGGGGCGGCCAGGGTGCT (ssDNA, 3' PEG4 spacer + C16 dialkyl tail) [3' PEG4 FKN-S2 Amphiphile] was run?
A: Its IC50 is 68.6 nM.

Q: How did the IC50 turn out when GGGGTGGGTGGGGGGCACGTGTGGGGGCGGCCAGGGTGCT (ssDNA, 3' PEG8 spacer + C16 dialkyl tail) [3' PEG8 FKN-S2 Amphiphile] was run?
A: Its IC50 is 47.5 nM.

Q: For GGGGTGGGTGGGGGGCACGTGTGGGGGCGGCCAGGGTGCT (ssDNA, 3' PEG24 spacer + C16 dialkyl tail) [3' PEG24 FKN-S2 Amphiphile], which IC50 is on record?
A: The IC50 was 49.6 nM.

Q: GGGGTGGGTGGGGGGCACGTGTGGGGGCGGCCAGGGTGCT (ssDNA, 3' C12 spacer + C16 dialkyl tail) [3' C12 FKN-S2 Amphiphile] was tested. Which IC50 did it give?
A: The IC50 was 75.6 nM.

Q: Which IC50 does the source give for GGGGTGGGTGGGGGGCACGTGTGGGGGCGGCCAGGGTGCT (ssDNA, 3' C24 spacer + C16 dialkyl tail) [3' C24 FKN-S2 Amphiphile] here?
A: The IC50 was 73.5 nM.

Q: With GGGGTGGGTGGGGGGCACGTGTGGGGGCGGCCAGGGTGCTTTTTT (ssDNA, 3' C16 dialkyl tail) [3' 5T FKN-S2 Amphiphile] as the binder, how does the IC50 read?
A: Its IC50 is 37.6 nM.

Q: Which IC50 does the source give for GGGGTGGGTGGGGGGCACGTGTGGGGGCGGCCAGGGTGCTTTTTTTTTTT (ssDNA, 3' C16 dialkyl tail) [3' 10T FKN-S2 Amphiphile] here?
A: Its IC50 is 21.8 nM.

Q: How did the IC50 turn out when TTTTTTTTTTGGGGTGGGTGGGGGGCACGTGTGGGGGCGGCCAGGGTGCT (ssDNA, 5' C16 dialkyl tail) [5' 10T FKN-S2 Amphiphile] was run?
A: The IC50 was 55.1 nM.

Q: How did the IC50 turn out when GGGGTGGGTGGGGGGCACGTGTGGGGGCGGCCAGGGTGCTAAAAAAAAAA (ssDNA, 3' C16 dialkyl tail) [3' 10A FKN-S2 Amphiphile] was run?
A: The IC50 was 24.8 nM.

Biological target: T2, fractalkine (CX3CL1)
Experiment: competition; vs radiolabeled FKN-S2, filter binding, PBS pH 7.4; Table 2 gives 8.6±0.3 nM (n=9)
Settings: tags: C-terminal polyhistidine; chemokine domain + mucin-like stalk; R&D Systems 365-FR-025; label: 5' 32P; parallel G-quartet and B-form features by CD

Q: With GGGGTGGGTGGGGGGCACGTGTGGGGGCGGCCAGGGTGCT (ssDNA) [FKN-S2] as the binder, how does the IC50 read?
A: Its IC50 is 9.5 nM.

Biological target: T2, fractalkine (CX3CL1)
Experiment: filter; homologous competition; 25 pM FKN, PBS pH 7.4, poly dA:dT, BSA, room temp
Settings: tags: C-terminal polyhistidine; chemokine domain + mucin-like stalk; R&D Systems 365-FR-025; label: 5' 32P; parallel G-quartet and B-form features by CD
Description: The dissociation constant of FKN-S2 for fractalkine was determined using a radioactive homologous competition filter binding assay. Dilutions of unlabeled FKN-S2 aptamer were mixed with a constant concentration of ³²P ATP labeled FKN-S2. The dilutions were then incubated with 25 pM fractalkine for 1 hour at room temperature. […] Bound aptamer was collected by filtration through a nitrocellulose membrane and the dissociation constant determined by non-linear regression analysis.
All binding experiments occurred in binding buffer composed of PBS with 0.5 μg/mL poly dA:dT and 50 μg/mL bovine serum albumin (BSA), pH 7.4. Unlabeled full length FKN-S2 aptamer was diluted in binding buffer and a constant concentration of radiolabeled full length FKN-S2 aptamer added to each dilution. Full length fractalkine or an equivalent concentration of BSA was diluted in binding buffer to 50 pM. Aptamer and fractalkine/BSA was incubated for 1 hour at room temperature. Following incubation, samples were filtered through a nitrocellulose membrane using a bio-rad dot blot apparatus. Each well was washed 3 times with 200 μL of PBS to remove unbound aptamer. The membrane was dried and exposed to a storage phosphor screen overnight and imaged (Packard Cyclone). Binding was quantified using ImageJ and the Dot Blot Analyzer plug-in. The data was fit to the following equation

Q: How did the Kd turn out when GGGGTGGGTGGGGGGCACGTGTGGGGGCGGCCAGGGTGCT (ssDNA) [FKN-S2] was run?
A: The Kd was 3.4 nM.

Biological target: T2, fractalkine (CX3CL1)
Experiment: competition; vs radiolabeled FKN-S2
Settings: tags: C-terminal polyhistidine; chemokine domain + mucin-like stalk; R&D Systems 365-FR-025
Description: as §1
We hypothesized that the improvement in affinity of the 3′ 10T FKN-S2 amphiphile may be due either to a spacer effect, where the spacer increases the distance between the aptamer and the tail, or due to an improvement in the affinity of the aptamer itself. To investigate the effect of the 10T spacer on the aptamer affinity, we measured the IC₅₀ values of the FKN-S2 aptamer with different nucleotide spacers (Table 3).

Q: Which IC50 does the source give for GGGGTGGGTGGGGGGCACGTGTGGGGGCGGCCAGGGTGCTT (ssDNA) [3' 1T FKN-S2 Aptamer] here?
A: The IC50 was 9.2 nM.

Q: How did the IC50 turn out when GGGGTGGGTGGGGGGCACGTGTGGGGGCGGCCAGGGTGCTTTTTT (ssDNA) [3' 5T FKN-S2 Aptamer] was run?
A: The IC50 was 3.4 nM.

Q: GGGGTGGGTGGGGGGCACGTGTGGGGGCGGCCAGGGTGCTTTTTTTTTTT (ssDNA) [3' 10T FKN-S2 Aptamer] was tested. Which IC50 did it give?
A: The IC50 was 3.6 nM.

Q: For TTTTTTTTTTGGGGTGGGTGGGGGGCACGTGTGGGGGCGGCCAGGGTGCT (ssDNA) [5' 10T FKN-S2 Aptamer], which IC50 is on record?
A: Its IC50 is 8.7 nM.

Q: Which IC50 does the source give for B1 here?
A: Its IC50 is 2.7 nM.

Biological target: T2, fractalkine (CX3CL1)
Experiment: filter; 1-10 nM aptamer; PBS pH 7.4, BSA, poly dA:dT
Settings: tags: C-terminal polyhistidine; chemokine domain + mucin-like stalk; R&D Systems 365-FR-025; label: 32P
Description: Anti-fractalkine Antibody Blocking Assay. Unlabeled FKN-S2 and scrambled FKN-S2 aptamer (sequence 5′-[…] […], SEQ ID NO:7) were diluted to 10 nM in binding buffer (PBS with 50 μg/mL BSA and 2.5 μg/mL Poly (dA:dT); pH 7.4). Approximately 75,000 cpm/well of radio-labeled aptamer was added and the samples were diluted to 5 and 1 nM. Each dilution was heat denatured and snap cooled. Full length fractalkine was diluted to 0.25 nM and approximately 100 nM of anti-chemokine domain antibody (FKN Ab) was added and allowed to bind for 30 minutes at room temperature. The aptamer was added to the protein solution and incubated at room temperature for 30 minutes. Bound aptamer was collected by filtering the samples thorough at nitrocellulose membrane and signal captured with a phosphor film and imaged. The background binding signal was removed from the FKN and FKN Ab+FKN samples by subtracting the signal from a well containing an identical concentration of BSA without FKN or FKN Ab. Binding was quantified using ImageJ.

Q: Does GTTGGGATGAGGGTGGGCGGGCGCGGCGGCTGGGGGTCGG (ssDNA) [scrambled FKN-S2] bind?
A: Result: no binding

Biological target: T2, fractalkine (CX3CL1)
Experiment: competition; vs radiolabeled FKN-S2
Settings: tags: C-terminal polyhistidine; chemokine domain + mucin-like stalk; R&D Systems 365-FR-025
Remark: another data set of the same source
Description: FKN-S2 contains 40 nucleotides and we investigated if truncation of the aptamer would result in sequences with similar affinity to fractalkine but with fewer nucleotides. Three truncated versions of the FKN-S2 aptamer were synthesized with five nucleotides removed from the 5′ end (FKN-S2a), five from the 3′ end (FKN-S2b) and five from each end (FKN-S2c). Additionally, a random 40-mer (5′-[…] (SEQ ID NO:4)) was used as a control. The relative affinities of the truncated aptamers were tested using a heterogeneous competition assay with radiolabeled full length FKN-S2 (FIG. 4). IC₅₀ values (the concentration of 50% reduction in binding) were determined by non-linear regression fitting of the data to the binding equation given in herein and the values are shown in Table 1.
Truncated FKN-S2 Aptamer Competitive Binding Assay. […] 1 nM of unlabeled FKN-S2 and 5,000 cpm/μL (counts per minute/μL) of radio-labeled full length FKN-S2 were heat denatured and snap cooled before addition to either fractalkine or a BSA control at a concentration of 0.1 nM and incubated for 1 hour at room temperature. The solutions were filtered through a nitrocellulose membrane and exposed to a storage phosphor film overnight and imaged. The binding was quantified using ImageJ and the Dot Blot Analyzer plug-in. Data was fit using the non-linear regression program Origin 8 to the equation

Q: For GGGGTGGGTGGGGGGCACGTGTGGGGGCGGCCAGG (ssDNA) [FKN-S2b], which IC50 is on record?
A: The IC50 was 5.41 µM.

Q: GGGTGGGGGGCACGTGTGGGGGCGGCCAGG (ssDNA) [FKN-S2c] was tested. Which IC50 did it give?
A: Its IC50 is > 100 µM.

Q: With CTATCGGCGACATGAACTTTGGCAAGGGCATCTGGTCCAT (ssDNA) [random 40-mer] as the binder, how does the IC50 read?
A: The IC50 was > 100 µM.

Biological target: CCL8 (UniProt P80075 P80075:24-99)
Experiment: filter; 0.2 nM protein; PBS pH 7.4, room temp
Settings: tags: PeproTech 300-15; label: 5' 32P; parallel G-quartet and B-form features by CD
Description: (§2) FKN-S2 was labeled with γ-³²P ATP using a T4 polynucleotide kinase as described in the FKN-S2 Aptamer Homologous Competitive Binding Assay section. Unlabeled FKN-S2 aptamer and 10⁶ counts per minute of radiolabeled FKN-S2 aptamer were mixed in binding buffer (PBS with 50 μg/mL BSA and 2.5 μg/mL Poly (dA:dT); pH 7.4) and the aptamer was denatured at 95° C. for 5 minutes followed by snap cooling in ice water for 5 minutes. The aptamer was then serial diluted in binding buffer and the dilutions added to full length fractalkine, heat-denatured fractalkine and chemokines CCL8 (PeproTech Catalog Number 300-15) and CXCL16 (PeproTech Catalog Number 300-55). All proteins were at a concentration of 0.2 nM. Fractalkine was denatured by heating to 95° C. for 10 minutes followed by incubation on ice until use. The aptamer and protein were incubated for 1 hour at room temperature. Bound aptamer was collected by filtering the samples thorough at nitrocellulose membrane and signal captured with a phosphor film and imaged. The background was measured from wells containing an identical concentration of BSA without the protein. Binding was quantified using ImageJ. […] The binding that was seen may be due to incomplete denaturing or refolding of fractalkine during the experiment.

Chain of CCL8 (P80075 24-99, one chain of several): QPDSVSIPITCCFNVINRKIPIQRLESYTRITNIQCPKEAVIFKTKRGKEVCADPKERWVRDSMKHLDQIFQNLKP

Q: Does GGGGTGGGTGGGGGGCACGTGTGGGGGCGGCCAGGGTGCT (ssDNA) [FKN-S2] bind?
A: Result: no binding

Biological target: T1, CXCL16
Experiment: filter; 0.2 nM protein; PBS pH 7.4, room temp
Settings: tags: PeproTech 300-55; label: 5' 32P; parallel G-quartet and B-form features by CD
Description: as §2

Q: Does GGGGTGGGTGGGGGGCACGTGTGGGGGCGGCCAGGGTGCT (ssDNA) [FKN-S2] bind?
A: Result: no binding

Reference: patent publication US20130123347, “FRACTALKINE BINDING POLYNUCLEOTIDES AND METHODS OF USE” (published 2013)
